Numbered stars: 1 amine (or outer) side, 2 acyl side, 3 side chain; on linkers, the order of the positions; unused ones are H or OH. Square brackets hold non-standard residues; d marks the D form. Side chains are listed from the residue outwards. * marks the point of attachment. γGlu = O=C(O)[C@H](CCC(=O)[*:2])N[*:1]; Palmitoyl = CCCCCCCCCCCCCCCC(=O)*; Aib = CC(C)(N)C(=O)O

What all share (assay): cell-based or functional assay
Assay [1] addresses human glucagon receptor (Glucagon-R) (human, UniProt P47871 26-477).
Assay [2] deals with human glucagon-like peptide 1 receptor (GLP-1R) (human, UniProt P43220 24-463).
The target of assay [3] is T1, endogenous GLP-1 receptor of a murine insulinoma cell line (murine, UniProt O35659 22-463).
T1 sequence (looked up): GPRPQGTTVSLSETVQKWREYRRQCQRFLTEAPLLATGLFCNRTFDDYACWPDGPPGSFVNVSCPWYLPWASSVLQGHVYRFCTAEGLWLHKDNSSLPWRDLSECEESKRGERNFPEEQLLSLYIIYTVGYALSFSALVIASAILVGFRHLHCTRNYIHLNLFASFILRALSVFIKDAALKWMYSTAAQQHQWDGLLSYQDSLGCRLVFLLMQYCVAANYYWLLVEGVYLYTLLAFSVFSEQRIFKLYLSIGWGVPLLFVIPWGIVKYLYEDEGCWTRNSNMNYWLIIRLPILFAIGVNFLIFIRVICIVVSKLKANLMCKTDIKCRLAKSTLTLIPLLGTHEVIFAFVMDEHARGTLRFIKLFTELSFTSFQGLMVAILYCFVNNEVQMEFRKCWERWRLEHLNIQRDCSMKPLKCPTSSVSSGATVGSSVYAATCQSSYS

The target of assay [4] is endogenous glucagon receptor of primary rat hepatocytes (rat, UniProt P30082 27-485).
endogenous glucagon receptor of primary rat hepatocytes, sequence (P30082 27-485): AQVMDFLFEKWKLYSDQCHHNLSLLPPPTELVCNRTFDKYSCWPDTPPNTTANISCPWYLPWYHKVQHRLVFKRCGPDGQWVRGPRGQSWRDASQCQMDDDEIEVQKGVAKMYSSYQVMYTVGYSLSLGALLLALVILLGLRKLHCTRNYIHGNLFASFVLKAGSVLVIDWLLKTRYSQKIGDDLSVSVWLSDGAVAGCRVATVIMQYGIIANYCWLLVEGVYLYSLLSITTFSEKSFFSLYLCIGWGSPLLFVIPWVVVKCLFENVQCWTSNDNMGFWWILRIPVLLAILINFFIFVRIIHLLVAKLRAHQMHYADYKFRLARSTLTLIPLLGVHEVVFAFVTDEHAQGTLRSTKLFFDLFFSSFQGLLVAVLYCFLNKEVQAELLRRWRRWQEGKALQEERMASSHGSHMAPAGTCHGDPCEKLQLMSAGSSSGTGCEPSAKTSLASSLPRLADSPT

human glucagon receptor (Glucagon-R), sequence (P47871 26-477): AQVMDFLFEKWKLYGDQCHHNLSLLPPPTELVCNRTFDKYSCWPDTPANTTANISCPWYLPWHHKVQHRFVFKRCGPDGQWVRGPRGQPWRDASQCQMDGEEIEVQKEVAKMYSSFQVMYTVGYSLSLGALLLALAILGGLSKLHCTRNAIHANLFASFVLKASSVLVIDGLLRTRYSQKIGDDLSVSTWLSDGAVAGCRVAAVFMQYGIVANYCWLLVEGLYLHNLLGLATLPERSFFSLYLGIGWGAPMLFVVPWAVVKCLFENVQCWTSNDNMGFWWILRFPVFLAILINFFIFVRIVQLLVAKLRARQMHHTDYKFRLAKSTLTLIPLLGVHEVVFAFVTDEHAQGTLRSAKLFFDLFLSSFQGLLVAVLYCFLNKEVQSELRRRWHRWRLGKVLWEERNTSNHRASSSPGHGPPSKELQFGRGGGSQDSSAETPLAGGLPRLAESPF

B1: Compound 3 (peptide)
peptide: H-HSQGTFTSDYSKYLDSK([γGlu-Palmitoyl])AAHDFVEWLLRA-OH
SMILES: CCCCCCCCCCCCCCCC(=O)N[C@@H](CCC(=O)NCCCC[C@H](NC(=O)[C@H](CO)NC(=O)[C@H](CC(=O)O)NC(=O)[C@H](CC(C)C)NC(=O)[C@H](Cc1ccc(O)cc1)NC(=O)[C@H](CCCCN)NC(=O)[C@H](CO)NC(=O)[C@H](Cc1ccc(O)cc1)NC(=O)[C@H](CC(=O)O)NC(=O)[C@H](CO)NC(=O)[C@@H](NC(=O)[C@H](Cc1ccccc1)NC(=O)[C@@H](NC(=O)CNC(=O)[C@H](CCC(N)=O)NC(=O)[C@H](CO)NC(=O)[C@@H](N)Cc1c[nH]cn1)[C@@H](C)O)[C@@H](C)O)C(=O)N[C@@H](C)C(=O)N[C@@H](C)C(=O)N[C@@H](Cc1c[nH]cn1)C(=O)N[C@@H](CC(=O)O)C(=O)N[C@@H](Cc1ccccc1)C(=O)N[C@H](C(=O)N[C@@H](CCC(=O)O)C(=O)N[C@@H](Cc1c[nH]c2ccccc12)C(=O)N[C@@H](CC(C)C)C(=O)N[C@@H](CC(C)C)C(=O)N[C@@H](CCCNC(=N)N)C(=O)N[C@@H](C)C(=O)O)C(C)C)C(=O)O
As to B1, the “EC50 hGCGR CHO-K1 [nM] (cAMP)” value in assay [1] amounted to 0.35 nM. Also, in assay [2], the “EC50 hGLP-1R CHO-K1 [nM] (cAMP)” value was 0.91 nM and the “Ratio GLP-1/Glucagon (EC50 hGLP-1R / EC50 hGCGR)” value turned out to be 2.6 ratio. For the same molecule, the “EC50 GLP-1R (murine insulinoma cells) [nM] (cAMP)” value (shortened to “EC50 GLP-1R … (cAMP)”) in assay [3] came to 1.06 nM. For the same molecule, the “EC50 GLP-1R Rat hepat. [nM] (inhibition of glycogen synthesis)” value in assay [4] is 0.16 nM.

As to HXQGTFTSDYSKYLDEXAAKDFIEWLLSA (Aib at position 2; Lys 17 K(Hexadecanoyl-isoGlu); C-terminal amide (-NH2)) [Compound 4], the “EC50 hGCGR CHO-K1 [nM] (cAMP)” value in assay [1] is 1.56 nM. Also, in assay [2], the “EC50 hGLP-1R CHO-K1 [nM] (cAMP)” value was found to be 0.38 nM and the “Ratio GLP-1/Glucagon (EC50 hGLP-1R / EC50 hGCGR)” value amounted to 0.24 ratio. Moreover, the “EC50 GLP-1R … (cAMP)” value in assay [3] amounted to 0.95 nM. The “EC50 GLP-1R Rat hepat. [nM] (inhibition of glycogen synthesis)” value in assay [4] was 0.35 nM.

B2: Compound 11 (peptide)
peptide: H-H[Aib]QGTFTSDYSKYLDEK([γGlu-Palmitoyl])RAKDFIEWLLS-OH
SMILES: CCCCCCCCCCCCCCCC(=O)N[C@@H](CCC(=O)NCCCC[C@H](NC(=O)[C@H](CCC(=O)O)NC(=O)[C@H](CC(=O)O)NC(=O)[C@H](CC(C)C)NC(=O)[C@H](Cc1ccc(O)cc1)NC(=O)[C@H](CCCCN)NC(=O)[C@H](CO)NC(=O)[C@H](Cc1ccc(O)cc1)NC(=O)[C@H](CC(=O)O)NC(=O)[C@H](CO)NC(=O)[C@@H](NC(=O)[C@H](Cc1ccccc1)NC(=O)[C@@H](NC(=O)CNC(=O)[C@H](CCC(N)=O)NC(=O)C(C)(C)NC(=O)[C@@H](N)Cc1c[nH]cn1)[C@@H](C)O)[C@@H](C)O)C(=O)N[C@@H](CCCNC(=N)N)C(=O)N[C@@H](C)C(=O)N[C@@H](CCCCN)C(=O)N[C@@H](CC(=O)O)C(=O)N[C@@H](Cc1ccccc1)C(=O)N[C@H](C(=O)N[C@@H](CCC(=O)O)C(=O)N[C@@H](Cc1c[nH]c2ccccc12)C(=O)N[C@@H](CC(C)C)C(=O)N[C@@H](CC(C)C)C(=O)N[C@@H](CO)C(=O)O)[C@@H](C)CC)C(=O)O
Take B2: the “EC50 hGCGR CHO-K1 [nM] (cAMP)” value in assay [1] was determined as 0.61 nM. Moreover, in assay [2], the “EC50 hGLP-1R CHO-K1 [nM] (cAMP)” value was 0.64 nM and the “Ratio GLP-1/Glucagon (EC50 hGLP-1R / EC50 hGCGR)” value is 1.05 ratio. Besides, in assay [3], the “EC50 GLP-1R … (cAMP)” value came to 1.01 nM.

B3: Compound 2 (peptide)
peptide: H-HSQGTFTSDYSKYLDSK([γGlu-Palmitoyl])AAHDFVEWLLSA-OH
SMILES: CCCCCCCCCCCCCCCC(=O)N[C@@H](CCC(=O)NCCCC[C@H](NC(=O)[C@H](CO)NC(=O)[C@H](CC(=O)O)NC(=O)[C@H](CC(C)C)NC(=O)[C@H](Cc1ccc(O)cc1)NC(=O)[C@H](CCCCN)NC(=O)[C@H](CO)NC(=O)[C@H](Cc1ccc(O)cc1)NC(=O)[C@H](CC(=O)O)NC(=O)[C@H](CO)NC(=O)[C@@H](NC(=O)[C@H](Cc1ccccc1)NC(=O)[C@@H](NC(=O)CNC(=O)[C@H](CCC(N)=O)NC(=O)[C@H](CO)NC(=O)[C@@H](N)Cc1c[nH]cn1)[C@@H](C)O)[C@@H](C)O)C(=O)N[C@@H](C)C(=O)N[C@@H](C)C(=O)N[C@@H](Cc1c[nH]cn1)C(=O)N[C@@H](CC(=O)O)C(=O)N[C@@H](Cc1ccccc1)C(=O)N[C@H](C(=O)N[C@@H](CCC(=O)O)C(=O)N[C@@H](Cc1c[nH]c2ccccc12)C(=O)N[C@@H](CC(C)C)C(=O)N[C@@H](CC(C)C)C(=O)N[C@@H](CO)C(=O)N[C@@H](C)C(=O)O)C(C)C)C(=O)O
In the case of B3, the “EC50 hGCGR CHO-K1 [nM] (cAMP)” value in assay [1] stood at 0.31 nM. In addition, in assay [2], the “EC50 hGLP-1R CHO-K1 [nM] (cAMP)” value turned out to be 0.77 nM and the “Ratio GLP-1/Glucagon (EC50 hGLP-1R / EC50 hGCGR)” value was 2.48 ratio. The “EC50 GLP-1R … (cAMP)” value in assay [3] was found to be 1.41 nM. Further, in assay [4], the “EC50 GLP-1R Rat hepat. [nM] (inhibition of glycogen synthesis)” value came out at 0.43 nM.

B4: Compound 5 (peptide)
peptide: H-H[Aib]QGTFTSDYSKYLDSK([γGlu-Palmitoyl])AAHDFVEWLESA-NH2
SMILES: CCCCCCCCCCCCCCCC(=O)N[C@@H](CCC(=O)NCCCC[C@H](NC(=O)[C@H](CO)NC(=O)[C@H](CC(=O)O)NC(=O)[C@H](CC(C)C)NC(=O)[C@H](Cc1ccc(O)cc1)NC(=O)[C@H](CCCCN)NC(=O)[C@H](CO)NC(=O)[C@H](Cc1ccc(O)cc1)NC(=O)[C@H](CC(=O)O)NC(=O)[C@H](CO)NC(=O)[C@@H](NC(=O)[C@H](Cc1ccccc1)NC(=O)[C@@H](NC(=O)CNC(=O)[C@H](CCC(N)=O)NC(=O)C(C)(C)NC(=O)[C@@H](N)Cc1c[nH]cn1)[C@@H](C)O)[C@@H](C)O)C(=O)N[C@@H](C)C(=O)N[C@@H](C)C(=O)N[C@@H](Cc1c[nH]cn1)C(=O)N[C@@H](CC(=O)O)C(=O)N[C@@H](Cc1ccccc1)C(=O)N[C@H](C(=O)N[C@@H](CCC(=O)O)C(=O)N[C@@H](Cc1c[nH]c2ccccc12)C(=O)N[C@@H](CC(C)C)C(=O)N[C@@H](CCC(=O)O)C(=O)N[C@@H](CO)C(=O)N[C@@H](C)C(N)=O)C(C)C)C(=O)O
As to B4, in assay [1], the “EC50 hGCGR CHO-K1 [nM] (cAMP)” value came out at 0.46 nM. Moreover, in assay [2], the “EC50 hGLP-1R CHO-K1 [nM] (cAMP)” value was 0.16 nM and the “Ratio GLP-1/Glucagon (EC50 hGLP-1R / EC50 hGCGR)” value was 0.35 ratio. Besides, in assay [3], the “EC50 GLP-1R … (cAMP)” value came out at 0.54 nM. Further, the “EC50 GLP-1R Rat hepat. [nM] (inhibition of glycogen synthesis)” value in assay [4] was found to be 0.03 nM.

B5: Compound 1 (peptide)
peptide: H-H[Aib]QGTFTSDYSKYLDSK([γGlu-Palmitoyl])AAHDFVEWLLS-OH
SMILES: CCCCCCCCCCCCCCCC(=O)N[C@@H](CCC(=O)NCCCC[C@H](NC(=O)[C@H](CO)NC(=O)[C@H](CC(=O)O)NC(=O)[C@H](CC(C)C)NC(=O)[C@H](Cc1ccc(O)cc1)NC(=O)[C@H](CCCCN)NC(=O)[C@H](CO)NC(=O)[C@H](Cc1ccc(O)cc1)NC(=O)[C@H](CC(=O)O)NC(=O)[C@H](CO)NC(=O)[C@@H](NC(=O)[C@H](Cc1ccccc1)NC(=O)[C@@H](NC(=O)CNC(=O)[C@H](CCC(N)=O)NC(=O)C(C)(C)NC(=O)[C@@H](N)Cc1c[nH]cn1)[C@@H](C)O)[C@@H](C)O)C(=O)N[C@@H](C)C(=O)N[C@@H](C)C(=O)N[C@@H](Cc1c[nH]cn1)C(=O)N[C@@H](CC(=O)O)C(=O)N[C@@H](Cc1ccccc1)C(=O)N[C@H](C(=O)N[C@@H](CCC(=O)O)C(=O)N[C@@H](Cc1c[nH]c2ccccc12)C(=O)N[C@@H](CC(C)C)C(=O)N[C@@H](CC(C)C)C(=O)N[C@@H](CO)C(=O)O)C(C)C)C(=O)O
Regarding B5, in assay [1], the “EC50 hGCGR CHO-K1 [nM] (cAMP)” value was found to be 0.9 nM. Further, in assay [2], the “EC50 hGLP-1R CHO-K1 [nM] (cAMP)” value worked out at 0.54 nM and the “Ratio GLP-1/Glucagon (EC50 hGLP-1R / EC50 hGCGR)” value is 0.6 ratio. The “EC50 GLP-1R … (cAMP)” value in assay [3] turned out to be 1.47 nM.

(Values after patent publication US20140080757A1 (ZEALAND PHARMA A S, published 2014).)
